One block for each binder: values may come before it.
Tests used:
human CD28 = human CD28 (human, UniProt P10747 19-220); experiment: flow cytometry, Jurkat cells (CD28)
human CTLA-4 = target: T1, human CTLA-4 (human, UniProt P16410 36-223); experiment: flow cytometry, CHO cells stably expressing CTLA4
T1 construct: also called huCTLA4

[1] = target: T2, human PD-L1 expressed on CHO cells (human, UniProt Q9NZQ7 19-290); experiment: flow cytometry, CHO cells stably expressing PD-L1, Fc fusion at 33.3 nM
T2 construct: whole, on cells; Target on CHO cells stably expressing PD-L1; also called huPD-L1
T2 sequence (Q9NZQ7 19-290): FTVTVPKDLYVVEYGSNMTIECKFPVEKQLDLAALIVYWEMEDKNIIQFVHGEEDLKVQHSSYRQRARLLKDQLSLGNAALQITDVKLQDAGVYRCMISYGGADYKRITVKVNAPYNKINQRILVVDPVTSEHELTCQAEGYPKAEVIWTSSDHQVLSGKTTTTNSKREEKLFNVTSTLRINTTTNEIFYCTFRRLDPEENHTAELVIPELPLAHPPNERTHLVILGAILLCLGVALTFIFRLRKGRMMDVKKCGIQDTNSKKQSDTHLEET

[2] = target: T3, human PD-L1 (full-length, expressed on CHO cells) (human, UniProt Q9NZQ7 19-290); experiment: flow cytometry MFI at 33.3 nM relative to WT CD80 ECD-Fc (R&D), CHO/huPD-L1 cells
T3 construct: also called huPD-L1; CD274
T3 sequence (Q9NZQ7 19-290): as above

[3] = target: T4, CD28 (endogenously expressed on Jurkat/IL2 reporter cells) (human, UniProt P10747 19-220); experiment: flow cytometry MFI at 33.3 nM relative to WT CD80 ECD-Fc (R&D), Jurkat cells
T4 construct: Endogenous CD28 of Jurkat cells; also called human CD28

[4] = target: T4, CD28 (endogenously expressed on …); experiment: flow cytometry, Jurkat/IL2 reporter cells (endogenous CD28), PE anti-human Fc
[5] = target: T3, human PD-L1 (full-length, expressed on …); experiment: flow cytometry, MFI on CHO/huPD-L1 cells over MFI on Jurkat (CD28) cells, 33.3 nM
[6] = target: T3, human PD-L1 (full-length, expressed on …); experiment: flow cytometry, CHO cells expressing huPD-L1, PE anti-human Fc
human PD-L1 = target: T5, human PD-L1 (human, UniProt Q9NZQ7 19-290); experiment: flow cytometry, CHO cells stably expressing PD-L1
T5 construct: also called huPD-L1; CD274
T5 sequence (Q9NZQ7 19-290): as above

[7] = target: T6, human CTLA4 expressed on CHO cells (human, UniProt P16410 36-223); experiment: flow cytometry, CHO cells stably expressing CTLA4, Fc fusion at 33.3 nM
T6 construct: whole, on cells; Target on CHO cells stably expressing CTLA4; also called huCTLA4
T6 sequence (P16410 36-223): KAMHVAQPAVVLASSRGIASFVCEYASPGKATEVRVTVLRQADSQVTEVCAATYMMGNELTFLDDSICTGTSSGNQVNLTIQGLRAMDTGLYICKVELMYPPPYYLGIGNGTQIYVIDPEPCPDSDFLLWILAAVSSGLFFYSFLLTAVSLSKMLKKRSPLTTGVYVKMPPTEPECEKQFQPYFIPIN

T1 sequence (P16410 36-223): as above

B1: CD80 IgV-Fc S21P/E35D/K37E/D46E/M47I/V68M (Fc fusion, not shown: a dimerising Fc or GST)
chain: VIHVTKEVKEVATLSCGHNVPVEELAQTRIYWQKDKEMVLTMMSGEINIWPEYKNRTIFDITNNLSIMILALRPSDEGTYECVVLKYEKDAFKREHLAEVTLSVKAD
MFI at 33.3 nM (human CD28): 540 MFI | MFI at 33.3 nM (human CTLA-4): 20600 MFI

B5: CD80 IgV-Fc S21P/E35D/K37E/D46E/M47I/V68M/R94L (Fc fusion, not shown: a dimerising Fc or GST)
chain: VIHVTKEVKEVATLSCGHNVPVEELAQTRIYWQKDKEMVLTMMSGEINIWPEYKNRTIFDITNNLSIMILALRPSDEGTYECVVLKYEKDAFKLEHLAEVTLSVKAD
MFI at 33.3 nM (human CD28): 284 MFI | MFI at 33.3 nM (human CTLA-4): 20100 MFI

B6: CD80 IgV-Fc T13R/Q33R/E35D/M38I/M47L/V68M/L85M/R94Q (Fc fusion, not shown: a dimerising Fc or GST)
chain: VIHVTKEVKEVARLSCGHNVSVEELAQTRIYWRKDKKIVLTMMSGDLNIWPEYKNRTIFDITNNLSIMILALRPSDEGTYECVVMKYEKDAFKQEHLAEVTLSVKAD
MFI at 33.3 nM (human CD28): 15.2 MFI | MFI at 33.3 nM (human CTLA-4): 19100 MFI | MFI at 33.3 nM (human PD-L1): 20400 MFI

B7: CD80 E35D/V68M/K89N IgV-Fc (Fc fusion, not shown: small tags and cut ends; a dimerising Fc or GST)
chain: VIHVTKEVKEVATLSCGHNVSVEELAQTRIYWQKDKKMVLTMMSGDMNIWPEYKNRTIFDITNNLSIMILALRPSDEGTYECVVLKYENDAFKREHLAEVTLSVKAD
MFI at 33.3 nM [7]: 24800 MFI

B9: CD80 E35D/M47V/N48K/V68M IgV-Fc (Fc fusion, not shown: small tags and cut ends; a dimerising Fc or GST)
chain: VIHVTKEVKEVATLSCGHNVSVEELAQTRIYWQKDKKMVLTMMSGDVKIWPEYKNRTIFDITNNLSIMILALRPSDEGTYECVVLKYEKDAFKREHLAEVTLSVKAD
MFI at 33.3 nM [1]: 23500 MFI | MFI at 33.3 nM [7]: 32900 MFI

B11: CD80 E35D/M47V/N48K IgV-Fc (Fc fusion, not shown: small tags and cut ends; a dimerising Fc or GST)
chain: VIHVTKEVKEVATLSCGHNVSVEELAQTRIYWQKDKKMVLTMMSGDVKIWPEYKNRTIFDITNNLSIVILALRPSDEGTYECVVLKYEKDAFKREHLAEVTLSVKAD
MFI at 33.3 nM [1]: 4850 MFI | MFI at 33.3 nM [7]: 47400 MFI

B12: CD80 E35D/M47V/V68M IgV-Fc (Fc fusion, not shown: small tags and cut ends; a dimerising Fc or GST)
chain: VIHVTKEVKEVATLSCGHNVSVEELAQTRIYWQKDKKMVLTMMSGDVNIWPEYKNRTIFDITNNLSIMILALRPSDEGTYECVVLKYEKDAFKREHLAEVTLSVKAD
MFI at 33.3 nM [1]: 16600 MFI

The remaining lines, values ahead:

MFI at 33.3 nM [1]: 23700 MFI
B2: CD80 M47V/N48K/V68M/K89N IgV-Fc (Fc fusion, not shown: small tags and cut ends; a dimerising Fc or GST)
chain: VIHVTKEVKEVATLSCGHNVSVEELAQTRIYWQKEKKMVLTMMSGDVKIWPEYKNRTIFDITNNLSIMILALRPSDEGTYECVVLKYENDAFKREHLAEVTLSVKAD

Fold change to WT [2]: 3.36 fold | Fold change to WT [3]: 0.03 fold | MFI at 33.3 nM [4]: 257 MFI | Ratio of PDL1:CD28 [5]: 104 ratio | MFI at 33.3 nM [6]: 26700 MFI
B3: variant CD80 IgV-Fc Q33K/E35D/D46V/L85Q (Fc fusion, not shown: a dimerising Fc or GST)
chain: VIHVTKEVKEVATLSCGHNVSVEELAQTRIYWKKDKKMVLTMMSGVMNIWPEYKNRTIFDITNNLSIVILALRPSDEGTYECVVQKYEKDAFKREHLAEVTLSVKAD

Fold change to WT [2]: 5.52 fold | Fold change to WT [3]: 0.04 fold | MFI at 33.3 nM [4]: 287 MFI | Ratio of PDL1:CD28 [5]: 153 ratio | MFI at 33.3 nM [6]: 43800 MFI
B4: variant CD80 IgV-Fc Q33L/E35D/T41S/M47V (Fc fusion, not shown: a dimerising Fc or GST)
chain: VIHVTKEVKEVATLSCGHNVSVEELAQTRIYWLKDKKMVLSMMSGDVNIWPEYKNRTIFDITNNLSIVILALRPSDEGTYECVVLKYEKDAFKREHLAEVTLSVKAD

MFI at 33.3 nM (human CD28): 191 MFI | MFI at 33.3 nM (human CTLA-4): 16900 MFI
B8: CD80 IgV-Fc V22D/E24D/E35D/M47V/V68M (Fc fusion, not shown: a dimerising Fc or GST)
chain: VIHVTKEVKEVATLSCGHNVSDEDLAQTRIYWQKDKKMVLTMMSGDVNIWPEYKNRTIFDITNNLSIMILALRPSDEGTYECVVLKYEKDAFKREHLAEVTLSVKAD

Fold change to WT [2]: 4.7 fold | Fold change to WT [3]: 0.04 fold | MFI at 33.3 nM [4]: 282 MFI | Ratio of PDL1:CD28 [5]: 132 ratio | MFI at 33.3 nM [6]: 37400 MFI
B10: variant CD80 IgV-Fc Q33L/E35D/M47I (Fc fusion, not shown: a dimerising Fc or GST)
chain: VIHVTKEVKEVATLSCGHNVSVEELAQTRIYWLKDKKMVLTMMSGDINIWPEYKNRTIFDITNNLSIVILALRPSDEGTYECVVLKYEKDAFKREHLAEVTLSVKAD

From patent US20210130436A1 (published 2021)
